The values below come from patent US9173923B2, “Modulating innate immune cell activity by lunasin and selected cytokines” (Indiana University Research & Technology Corporation, priority 2011, dated 2015).

One experiment has as its system human primary NK cells. The experiment is described as follows: Gene expression by primary NK cells (real time qPCR, Taqman Assay). Type of experiment: cell-based. The note with it: 1 day; lunasin 20 μM; compared to cytokine alone. An excerpt: FIG. 3 Synergistic effects of lunasin and cytokines on gene expression by human primary NK cells. […] One day following the stimulation, the cell pellets were resuspended in Trizol Reagents for total RNA extraction. The first-strand cDNA was synthesized followed by real time qPCR using Taqman Assay with primers for IFNγ(IFNG), granzyme B (GZMB), granulysin (GNLY), chemokine (C-C motif) ligand 3 or CCL3 (CCL3), CCL4 (CCL4). Granulocyte-macrophage colony-stimulating factor or GM-CSF (CSF2) TGFβ (TGFB) and TGFβ receptor (TGFBR2) in ABI 7300 (Applied Biosystems by Life Technologies, Carlsbad CA) Data are presented as mean±SD from 2 duplicates. Results shown are representative over 5 different normal controls. […]
One day following the stimulation, the cell pellets were resuspended in Trizol Reagents for total RNA extraction. The first-strand cDNA was synthesized followed by real time qPCR using Taqman Assay with primers for IFNγ (IFNG), granzyme B (GZMB), granulysin (GNLY), chemokine (C-C motif) ligand 3 or CCL3 (CCL3), CCL4 (CCL4), Granulocyte-macrophage colony-stimulating factor or GM-CSF (CSF2), TGFβ (TGFB) and TGFβ receptor (TGFBR2) in ABI 7300 (Applied Biosystems by Life Technologies, Carlsbad, Calif.). Data are presented as mean±SD from duplicates. Results shown are representative over 5 different normal controls.
Following 1, 2, and 3 days of stimulation, the cell pellets were lysed in Trizol Reagents for total RNA extraction. The first-strand cDNA was synthesized followed by real time qPCR using Taqman Assay with primer for TGFB1 and TGFBR2 in ABI 7300. Results are presented as mean±SD from duplicates. […]
Freshly isolated human NK cells from peripheral blood mononuclear cells (PBMCs) of normal control using positive selection with CD56 magnetic beads (Miltenyi Biotec, Auburn, Calif.) were stimulated with medium only (−), IL-12 (10 ng/ml) or IL-12 (10 ng/ml)+lunasin (5 μM) for 1 day. The cell pellets were lysed in Trizol Reagents for total RNA extraction. The first-strand cDNA was synthesized followed by real time qPCR using Taqman Assay with primer for inhibitory receptors KIR3DL1 (upper panel) and KIR3DL2 (lower panel) in ABI 7300.

The next experiment relates to mouse NK cells. The experiment is described as follows: IFNγ produced by NK cells from tumor-bearing mice with or without etoposide chemotherapy (ELISA). It counts as cell-based. As to conditions: reduced Stat4; mouse IL-12 2 ng/ml or human IL-2 50 units/ml, lunasin 20 μM; 1 day.

Description for mouse NK cells: Mouse NK cells were positively selected from spleens of tumor-bearing mice with (+Eto) or without (−Eto) chemotherapeutic drug etoposide. Isolated NK cells were stimulated with mouse IL-12 at 2 ng/ml with (+) or without (−) lunasin peptide (A) or human IL-2 at 50 units/ml with (+) or without (−) lunasin at 20 μM (B). The production of IFNγ in the supernatant after 1 day of stimulation was determined using ELISA. Results are presented as mean±SD from 3 mice. ND is not detectable.

B1: IL-12 (protein, UniProt P43431 23-215; P43432 23-335, looked up)
Interleukin-12 subunit alpha: RVIPVSGPARCLSQSRNLLKTTDDMVKTAREKLKHYSCTAEDIDHEDITRDQTSTLKTCLPLELHKNESCLATRETSSTTRGSCLPPQKTSLMMTLCLGSIYEDLKMYQTEFQAINAALQNHNHQQIILDKGMLVAIDELMQSLNHNGETLRQKPPVGEADPYRVKMKLCILLHAFSTRVVTINRVMGYLSSA
Interleukin-12 subunit beta: MWELEKDVYVVEVDWTPDAPGETVNLTCDTPEEDDITWTSDQRHGVIGSGKTLTITVKEFLDAGQYTCHKGGETLSHSHLLLHKKENGIWSTEILKNFKNKTFLKCEAPNYSGRFTCSWLVQRNMDLKFNIKSSSSSPDSRAVTCGMASLSAEKVTLDQRDYEKYSVSCQEDVTCPTAEETLPIELALEARQQNKYENYSTSFFIRDIIKPDPPKNLQMKPLKNSQVEVSWEYPDSWSTPHSYFSLKFFVRIQRKKEKMKETEEGCNQKGAFLVEKTSTEVQCKGGNVCVQAQDRYYNSSCSKWACVPCRVRS
As to B1, the “GZMB (granzyme B) gene expression” value in the experiment on human primary NK cells is “no further induction of GZMB”. In the experiment with mouse NK cells, the “IFNγ production by NK cells from tumor-bearing mice following chemotherapy (+etoposide)” value is “secreted less IFNγ”.
